# Reference: the supplement of paper PMC7125110
# ± gives the standard error. Fewer inactive variants are shown than the library holds.
# B1: glmS ribozyme (parent)
# chain: AUAAAAGCGCCAGAACUACAGAAAUGUAGUUGACGAGGAGGAGGUUUAUCGAAUUUUCGGCGGAUGCCUCCAAA
# Variants of: B1
# Test: self-cleavage kobs at 2500 uM GlcN6P; higher = faster cleavage; RNA array
# Details: with glucosamine-6-phosphate
# Method in brief: (§1)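 Barcoded glmS ribozyme variants on sequenced MiSeq chips were transcribed in situ by E. coli RNA polymerase and tracked through a hybridised Cy3 probe at 37 °C. Glucosamine-6-phosphate (40 μM to 10 mM) in HEPES/KCl/Mg(OAc)2 buffer was flowed in, and tiles were imaged over ~14 h. Signals were normalised to baseline and to non-cleaving reference variants; per-tile medians were fit to one- or two-exponential decays to give kobs. kcat and KM came from weighted Michaelis–Menten fits across concentrations.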
row,Variant,self-cleavage kobs at 2500 uM GlcN6P [s⁻¹]
1,AUAAAAGGGCCAGAACUACAGAAAUGUAGUUGACGAAGUGGAGGUUUAUCGAAUUUUCGGCGGAUGCCUCCAAA [C8G G37A A39U],< 1e-05
2,AUAAAAGCGCCAGAACUACAGAAAUGUAGUUGACGAGGAGCACGUUAAUCGAAUUUUCGGCGGGUGCCUCCAAA [G41C G43C U47A A64G],< 1e-05
3,AUAAAAGCGCCAGCACUACAGAAAUGUAGUUGAGGAGGAGGAGGUUUCUCGAAUUUUCGGCGGAUGCCUCCAAA [A14C C34G A48C],< 1e-05
4,AUAAAAGCGCCAGAACUACAGAAAUGUAGUUGACGAGGAGGAGGUUUGUCGAAUUUUCGGCGGAUGCCGCCAAA [A48G U69G],0.000101 ± 3.7e-05
5,AUAAAAGCGCCAGGACUACAGAAAUGUAGUUGACGAGGAGGAGGUUUAUCGAAUGUUCGGCGGAUGCAUCCAAA [A14G U55G C68A],0.000208 ± 5.1e-05
6,AUAAAAGCGCCAGAACUACAGAAAUGUAGUUGACGACGAGGAGGUUUAUCGAAUUUUCGGCGGAUGUCUCAAAA [G37C C67U C71A],5.9e-05 ± 2.4e-05
7,AUAAAACCGCCAGAACUACAGAAAUGUAGUUGACGAGGAGGGGGUUUAUCGAAUUUUCUGCGGAUGCCUCCAAA [G7C A42G G59U],< 1e-05
8,AUAAAAGCGCGAAAAGUACAGAAAUGUACUUGACGACGAGGAGGUUUAUCGAGUUUUCGGCGGAUGCCUCCAAA [C11G G13A C16G G29C G37C A53G],< 1e-05
9,AUAAAAGCGCCAGAACUACAGAAAUGUAGUCGACGAGGAGGAGGUUUAUCGAAUUCUCGGCGGAUGCCUGCAAA [U31C U56C C70G],< 1e-05
10,AUAAAAGCGCCAGGACUACAGAAAUGUAGUUGACGAGGAGGCGGUUUACCGAAUUUUCGGCGGAUGCCUCCAAA [A14G A42C U49C],< 1e-05
11,AUAAAAGCGCUAGAACUACAGAAAUGUAGUCGACGAGGAGGAGGUUUAUUGAAUUUUCGGCGGAUGCCUCCAAA [C11U U31C C50U],< 1e-05
12,AUAAAAGCGCUAGCAAUACAGAAAUGUAGUUGACGAGUAAGAGGUUUAUGGAAUUUUCGGCGGAUGCCUCCAAA [C11U A14C C16A G38U G40A C50G],6.83e-05 ± 2.4e-05
13,AUAAAAGCGCCAUAACUACAGAAAUGUAGUUGACGAGGCGGAGGUUUCUCGAAUUUUCGGCGGAUGCCUCCAAA [G13U A39C A48C],< 1e-05
14,AUAAAAGCGCCAGAACUACAGAAAUGUAGCUGACGAGGAGGCGGUAUAUCGAAUUUUCGGCGGAUGCCUCCAAA [U30C A42C U46A],< 1e-05
15,AUAAAAGCGCCAGAACUACAGAAAUGUAGUUGACGAGGAGCAGGUUUAUCGCAUGUUCGCCGGAUGCUUCCAAA [G41C A52C U55G G60C C68U],< 1e-05
16,AUAAAAGUGGCAGAACUACAGAAAUGUAGUUGACGAGAAGGAGGUUUAUCGAAUUUUCGGCGGAUGCCUCCAAA [C8U C10G G38A],< 1e-05

row,Variant,self-cleavage kobs at 2500 uM GlcN6P [s⁻¹]
1,AUAAAAGCGCCCGAACUACAGAAAUGUAGAUGACGAGGAGGAGGUUUAUCGAAUUUUCGACGGAUGCCUCCAAA [A12C U30A G60A],< 1e-05
2,AUAAAAGCGCCAGAACUACAGAAAUGUAGUUGACGAGGAGGAGGUUUAUCAACUUUUCGGCUGAUGCCUCCAAA [G51A A53C G62U],< 1e-05
3,AUAAAAGGGCCAGAUCUACAGAAAUGUAGUUGACGAGGAGGAGGUUUAUCGAAUCUUCGGCGGAUGCCUCCAAA [C8G A15U U55C],< 1e-05
4,AUAAAAGCGCCAGAACUACAGAAAUGUAAUUGACGAGGAGAAGGUUUAUCGAAUUUUCGGCGGAUGCCUCCAAA [G29A G41A],6.8e-05 ± 2e-05
5,AUAAAAGCGCCAGAACUACAGAAAUGUAGUUCACGAGGGGGAGGUUUAUCGAGUUUUCGGCAGAUGCCUCCAAA [G32C A39G A53G G62A],< 1e-05
6,AUAAAAGCGCCAGAACUACAGAAAUGUAGUUCACGAGGAGGAGGUUUAUCGAAUUUUCGGCCGAUGUCUCCAAA [G32C G62C C67U],< 1e-05
7,AUAAAAGCGCCAGGAGUACAGAAAUGUAGUUGACGAGGAGGAGGUUUAUCGAAUUUUCGGCGGGUGCCGCCAAA [A14G C16G A64G U69G],5.19e-05 ± 2.3e-05
8,AUAAAAGCGCCAGACCUACAGAAAUGUAGACGACGAGGAGGAGGUUUAUCGAAUUUUCGGCGGAUGCCUCGAAA [A15C U30A U31C C71G],0.000148 ± 5.9e-05
9,AUAAAAGCGCCAGAAAUACAGAAAUGUAGUUGACGAGGAGGAGGUUUAUCGAAUUUUCUGCGGUUGGCUCCAAA [C16A G59U A64U C67G],< 1e-05
10,AUAAAAGCGCCAGAACUACAGAAAUGUAGUUGGCGAGGAGGAGGUUGAUCGAAUUUUCGGCGGAUACCUCCAAA [A33G U47G G66A],< 1e-05
11,AUAAAAGCGCCAGAACUACAGAAAUGUAGUUGACGAGGAGGAGGUGUAUCGAAUUUUCGGAGGAUGCCUGCAAA [U46G C61A C70G],< 1e-05
12,AUAAAAGCGCCAGAACUACAGAAAUGUAGAUGACGUGGAGGAGGUUUAUCGAAUUUUCGGCGGAUGCCUCAAAA [U30A A36U C71A],< 1e-05
13,AUAAAAGCGCCAGAACUACAGAAAUGUAGUUGAAGCUGAGGAGGUUUAUCUAAUUUUCGGCGGAUGCCUCCAAA [C34A A36C G37U G51U],< 1e-05
14,AUAAAAGCGCCAGAACUACAGAAAUGUAGUUGCCGAGGAUGAGGUUUAUCUAAAUUUCGGCGGAUGCCUCCAAA [A33C G40U G51U U54A],< 1e-05
15,AUAAAAGCGCCAAAACUACAGAAAUGUAGUUGACGAGGAGGAGGUUUAUCGAAUUUUCGGCGGAGGCCUCCAAA [G13A U65G],8.18e-05 ± 2e-05
16,AUAAAAGCGCCAGAACUACAGAAAUGUAGUUGACGAGGAGGAGGUGUAUCGAACUUUGGGCGGAAGCCUCCAAA [U46G U54C C58G U65A],< 1e-05

# Variants of: B1
# Test: self-cleavage kobs at 10000 uM GlcN6P; higher = faster cleavage; RNA array
# Details: with glucosamine-6-phosphate
# Method in brief: as §1
row,Variant,self-cleavage kobs at 10000 uM GlcN6P [s⁻¹]
1,AUAAAAGCGCCAGCACUACAGAAAUGUAGUUGAGGAGGAGGAGGUUUCUCGAAUUUUCGGCGGAUGCCUCCAAA [A14C C34G A48C],< 1e-05
2,AUAAAAGCGCCAGAACUACAGAAAUGUAGUUGACGAGGAGGAGGUUUGUCGAAUUUUCGGCGGAUGCCGCCAAA [A48G U69G],3.66e-05 ± 1.3e-05
3,AUAAAAGCGCCCGAACUACAGAAAUGUAGAUGACGAGGAGGAGGUUUAUCGAAUUUUCGACGGAUGCCUCCAAA [A12C U30A G60A],< 1e-05
4,AUAAAAGCGCCAGAACUACAGAAAUGUAAUUGACGAGGAGAAGGUUUAUCGAAUUUUCGGCGGAUGCCUCCAAA [G29A G41A],5.78e-05 ± 1.5e-05
5,AUAAAAGCGCCAGAACUACAGAAAUGUAGUUCACGAGGAGGAGGUUUAUCGAAUUUUCGGCCGAUGUCUCCAAA [G32C G62C C67U],< 1e-05
6,AUAAAAGCGCCAGAACUACAGAAAUGUAGAUGACGUGGAGGAGGUUUAUCGAAUUUUCGGCGGAUGCCUCAAAA [U30A A36U C71A],< 1e-05
